These results are taken from the nanobody polyreactivity screen of Harvey et al. (2022).

The data set in a line: yeast display, Sf9 membrane polyspecificity reagent, FACS + sequencing; frameworks hold sequencing errors. The method in brief: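 Using colony PCR, genes from sorted yeast display clones were amplified, then sequenced on MiSeq at 2 × 250 and filtered by CDR length. The clones had been stained with 10% biotinylated, detergent-solubilized Sf9 membrane reagent for 1 hour at 4 °C and sorted by FACS into low and high (top ~1%) gates on anti-HA and streptavidin fluorescence. Polyreactivity labels come from the gate of origin.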
On to “QVQLVESGGGLVQAGGSLRLSCAASGLTLVTYAMGWYRQAPGNERELVAAINSGGSTNYADSVKGRFTISRDNAKNTVYLQMNSLKPEDTAVYYCNADRVSPATYDYWGQGTQVTVSS”, for which the “polyreactivity (PSR sort gate)” value is “low polyreactivity”.

Consider “QVQLVESGGGLVQAGGSLRLSCAASGITIYKYAMGWYRQAPGKERELVAAITRGGSTNYADSVKGRFTISRDNAKNTVYLQMNSLKPEDTAVYYCNKVYHWQSPGFGYGYWGQGSQVTVSS”, for which the “polyreactivity (PSR sort gate)” value was “high polyreactivity”.

For “QVQLVESGGVLVQAGGSLRLSCAASGRTFGVYAMGWYRQAPGKERELVATITSVDRTNYADSVKGRFTISRDNAKNTVYLQMNSLKTEDTAVYYCAAVGRWPLYYYWGQGTQVTVSS”, the “polyreactivity (PSR sort gate)” value is given as “high polyreactivity”.

Take “QVQLQESGGGLVQAGGTLRLSCAASGSFSADEDMGWYRQAQGKEREFVAGISVGGNTNYADSVKGRFTISRENAKNTVYLELNSLKPEDTAVYYCAVLQDVYDALDYWAQGTQVTVSS”: the “polyreactivity (PSR sort gate)” value is “high polyreactivity”.

Consider “QVQLVESGGGLVQAGGSLRLSCAASGFTFGGNAMGWYRQAPGKEREFVAAITRSGGSTYYADSVKGRFTISRDNAKNTVYLQMNSLKPEDTAVYYCAARRSYPLGYDYWGQGTQVTVSS”, for which the “polyreactivity (PSR sort gate)” value is “high polyreactivity”.

Regarding “QVQLVESGGGLVQAGGSLRLSCAASGFIFATNNMGWYRQAPGKERELVAASSTYYADSVKGRFTISRDNAKNTVYLQMNSLKPEDTAVYYCNALYRYLYRSGDYWGLGTQVTVSS”, the “polyreactivity (PSR sort gate)” value was “low polyreactivity”.

Take “QVQLVESGGGLVQAGGSLRLSSAASGSTFDYYAMGWYRQAPGKERELVDGITYSGGTTYYADSVKGRFTISRDNAKNTVYLQMNSLKPEDTAVYYCNAVYDRNFYYWGQGTQVTVSS”: the “polyreactivity (PSR sort gate)” value is recorded as “high polyreactivity”.

In the case of “QVQLVESGGGLVQAGGSLRLSCAASGRILRGYAMGWYRQAPGKERELVAAINSGGDTYYADSVKGRFTISRDNAKNTVYLQMNSLKPEDTAVYYCASDYWGWIYLYGDHLVDYRGQGTQVTVSS”, the “polyreactivity (PSR sort gate)” value is “low polyreactivity”.

As to “QVQLVESGGGLVQAGGSLRLSCAASGIIFAYNAMGWYRQAPGKEWELVAGITRNDGSTNYADSVKGRFTISRYNAMNTVYLQMNSLKPEDTAVYYCATGGWRWQRNPSYDYWGQGNQVTVSS”, the “polyreactivity (PSR sort gate)” value is recorded as “low polyreactivity”.

Consider “QVQLVESGGGLVQAGGSLRLSCAASGSTFRYNTMGWYRQAPGKERELVARITSVGSTNYADSVKGRFTISRDNAKNTVYLQMNSLKPEDTAVYYCATTRPIRRTSARYNYWGQGTQVTVSS”, for which the “polyreactivity (PSR sort gate)” value is given as “low polyreactivity”.

In the case of “QVQLVESGGGLVQAGGSLRLSCAASGSTFRRNAMGWYRQPPGKERELVAAISGSGSTYYADSVKGRFTISRDHAKNTVYLQLNSLKPEDTAVYYCAKDVTDPTSRSDRSGDDYWGQGTQVTVSS”, the “polyreactivity (PSR sort gate)” value was “low polyreactivity”.

With “QVQLVESGGGLVQAGGSLRLSCAASGSTVYYNAMGWYRQAPGKERELVAAISRSGGRTYYADSVKGRFTISRDNAKNTVYLQMNSLKPEDTAVYYCAADAPGHEYYYWGQGTQVTVSS”, the “polyreactivity (PSR sort gate)” value is on record as “high polyreactivity”.

With “QVQLLESGGGLVQAGRSLRLSCAASGNTFDEYVKGWYRQAPGKESELDASIDWSGGGTYYADSVKGRFTISRDNAKNTVYLQMNSLKPEDTAVFYCNADYFDYSRTRYDYWGQGTQVNVSS”, the “polyreactivity (PSR sort gate)” value is given as “low polyreactivity”.

Regarding “QLQLVESGGGLVQAGGSLRLSCAASGLILYSYAMGRYRQAPGKERELVADISSGGITNYADSVKGRFTISRDNAKNTVYLQMNSLKPADTAVNYCAADTRPVNYILYEYWGQGTQVTVSS”, the “polyreactivity (PSR sort gate)” value is “low polyreactivity”.

With “QDQLVESGGGLVQAGGSLRLSCAASGSTFETNAMGWYRQAPGKERELVAAISGRGGSTYYADSVKGRFTFSRDNAKNTVYLQMNSLKPEDTAVFYCDATYGTGRRSKYGYCGQGTQVTVSS”, the “polyreactivity (PSR sort gate)” value is reported as “high polyreactivity”.

Regarding “QVQLVASGGGLVQAGGSLRLSSAASGFTFYGYAMGWYSQARGKERELVATIRRSTGSTYYADSVKGRFTISRDNAKNTVYLQINSLIPEDTAVYYCATRVWFPITSYDYWGQGTQVTVSS”, the “polyreactivity (PSR sort gate)” value is recorded as “low polyreactivity”.

Take “QVQLVESGGGLVQAGGSLRLSCAASGSTFGVNAMGWYRQAPGKERELVAAITRRGSSTYYADSVKGRFTNSRDNAKNTVYLQMNSLKPEDTAVYFCAADLHYRPGFRYGYWGQGTQVTVSS”: the “polyreactivity (PSR sort gate)” value is reported as “high polyreactivity”.

“QVQLVESGGGLVQAGGRLRLSCAASGSTFFIYAMRCFRQAPGKERELVAAISSRGGRTYYADSVKGRFTISRDNAKNTVYLQMNSLKPEDTAVYYCYFLIYSKGQAFDYWGQGTQVSVSS”: the “polyreactivity (PSR sort gate)” value is given as “high polyreactivity”.

“QVQLVESGGGLVQAGGSLRLSCAASGNTFKTNAMGWYRQAPGKERELVAAISSSGSTYYADSVKGRFTISRDNAKNTVYLQMNSLKPEDTAVYYCAVTYRRFYYWGQGTQVTVSS”: the “polyreactivity (PSR sort gate)” value is given as “high polyreactivity”.

For the sequence “QFQLVESGGGLVQAGGSLRLSCAASGITFSFYAIVWYRQATGKERELVAAINGRGGRTYYADSVKGRFTISRDKAKNTFYLQMNSLKTEDTAVYFCAAVVWRTDYDYWGQGTQVTVSS”, the “polyreactivity (PSR sort gate)” value is recorded as “low polyreactivity”.

Regarding “QVQLVESGGGLVQAGGSLRLSCAASGRTLYKYAMGLYRQAPGKERELFATISSGGRTNYADSVKGRFTISRDNSKNTVYLQMNSLKPEDTAVYYCAAQNRPRYYSGDYWGQGSQVTVSS”, the “polyreactivity (PSR sort gate)” value is on record as “low polyreactivity”.

Take “QVHLVESGGGLVQAGGSLRLSCAASGRTFPSYAMGWYRQAPGKERELVAAITRGGSTYYADSVKGRFTISRDNAKNTVYLQMNSLKPEDTAVYYCATRYGRARAYYYWGQGTQVTVSS”: the “polyreactivity (PSR sort gate)” value is on record as “high polyreactivity”.

Regarding “QVQLVESGGGIVQAGGSLRLSCAASGNTFGYYAMGWYRPAPGKERELVASISYSGGSTYADSVKGRFTISRDNAKNTVYLQMNSLKPEDTAVYYCAADYWIYAADSWVLYDSWGQGTQVTVSS”, the “polyreactivity (PSR sort gate)” value is recorded as “low polyreactivity”.

In the case of “QVQLVESGGGLDQAGGSLRLSCAASGSIFGTNTMGWYRQSPGKERELVAAIRLSDSSTYYADSVKGRFTISRDNAKNTVYLQMNSLKPEDTAVYYCAVDYRAYHYYRYDYWGQGTQVTVSS”, the “polyreactivity (PSR sort gate)” value is “low polyreactivity”.

“QVQLVESGGGLVQAGGSLRLSCAASGFTFKYYAMGWYRQAPGKERELVAAISRGGSTYYADSVKGRFTFSRDNAKNTVYLQMNSLKPEDTAVYYCAARYVRVGYDYWGQGTQVTVSS”: the “polyreactivity (PSR sort gate)” value is “high polyreactivity”.

With “QVQLVESGGGLVQAGGRLRLTCSASGFIIRFYAMGWYRQATGKEREFVASISRRAGRTYYADSVKGRFTISRDNAKNTVYLQMNSLKPEDTAVFYCAASGFGSFRYSSTYDYWGQGSQVTVSS”, the “polyreactivity (PSR sort gate)” value is “high polyreactivity”.

Take “QVQLVESGGGLVQAGGSLRLSCAASGNTLQVYAMGGYRPAPGKERELVARLTGGGRTSYADSVKGRFTISRDNAKTTVYLQMHSLKPEDTAVYYCATVYYGHIVLYDYWGQGTQVTVSA”: the “polyreactivity (PSR sort gate)” value is “low polyreactivity”.

For “QVQLVESGAGLVQAGGSLRLSCAAYGRIFGIYALGWYRQAPGKEREFVAAISDRSGSRTYYADSVKGRFTISRDNAKNTVYLQINSLKPEDTAVYYCAAGILRWKDRWFEYWGQGTQVTVSS”, the “polyreactivity (PSR sort gate)” value is “high polyreactivity”.

As for “QVQLVESGGGLVQAGGSLRLSCAASGFTFGSYAMGWYRQAPGKERELVAAITASGGSTYYADSVKGRFTISRDNPKNTVYLQMNSLKPEDTAVYYCNKRWTYKWDDYWGQGTQVTVSS”, the “polyreactivity (PSR sort gate)” value is “high polyreactivity”.

Take “QVQLVESGGGLVQAGGSLRLSCAASGSIFGIYTMGWYRQAPGKERELVAAITSVGSTNYADSVKGRFTISRDNAKNTVYLQMNSLKPEDTAGYYCARASAWYVTLVGKYTKYDYWGQGTQVTVSS”: the “polyreactivity (PSR sort gate)” value was “low polyreactivity”.

For “QFQLVESGGGFVQAGGSLRLSCAASGSIFLYNDMGWYRQAPGKERELVPAITSDGSTNYADSVKGRFTISRDNAKNTFYLQMNSLKPEDTAVYYCAADALWFYLNWYYGGTAYGYWGQGTQVTVSS”, the “polyreactivity (PSR sort gate)” value was “low polyreactivity”.

Take “QVQLVESGGGLDQAGGSLRLSCAASGSIFLDYAMGWYRQAPGKERELVAAISLSSSRTYYADSLKGRFTISRDNAKNTVYLQLNSLKPEDTAVYNCNKLSIWSYYFGPYGYDYWGQGTQVTVSS”: the “polyreactivity (PSR sort gate)” value is given as “low polyreactivity”.

Take “QVQLVESGGGLVQAGGSLRLSCAASGFTFFPYAMGWYRQAPGTERELVAAITETGGRTYYADSVKGRFTISRDNAKYTVYLQMNSLKPEDTAVYYCAKRGLHGYFVRGERGYWGQGTQVTVSS”: the “polyreactivity (PSR sort gate)” value is recorded as “low polyreactivity”.

On to “QVQLVESGAGLVQAGGSLRLSCAASGIIFASNAMGWYRQAPGKERELLATINWTDSSTYYADSVKGRFTISRDNAKNTVYLQMNSLKPEDTAVYYCNAVPHWFYRYGRYDYWGQGTQVTVSS”, for which the “polyreactivity (PSR sort gate)” value is “low polyreactivity”.

With “QVQLVESGGGLVQAGGSLRLSCAASGSTFVDYAMGWYRQAPGKERELVAAINERGGSTYYADSVKGRFTISRDNAKNTVYLQMNSLKPEDTAVYYCAARRRTRSSHSWYIRYGYWGQGTQVTVSS”, the “polyreactivity (PSR sort gate)” value is listed as “low polyreactivity”.

On to “QVQLVESAGGLVQAGVSLRLSCAASGLTFVQYAMGWYIQAPGKERELVAAISRSGGSTYYADSVKGRFTISRDNAKNTVYLQMNSMKPEDTAVYYCNAVIWLTSSEYWGQGTQVTVSS”, for which the “polyreactivity (PSR sort gate)” value was “high polyreactivity”.

“QVQLVESGGGLVQTGGILRLSCAASGRIFYYNAMGWYRQEPGKERDFFAAITSSSGSSTYYADSVKGRFTISLDNAKNTVYLQMNSLKPEVTAVYYCAAVGTFIIRYLSRSSYWGQGTQVTVSS”: the “polyreactivity (PSR sort gate)” value is “low polyreactivity”.

Consider “QVQLVESGGGLVQAGGSLRLSCAASGFIFLYYAMGWYRQAPGKERELVPYISRGADTKYADSVKGRFTISRDNAKNTVYLQMNSLKPEDTAVYYCATDITTFWFPYPGVELGYWGQGTQVTVAS”, for which the “polyreactivity (PSR sort gate)” value is “low polyreactivity”.

As to “QVQLVESGGGLVQAGGSLRLSCAASGFIFYVYAMGWYRQARGKERELVAAISGGGDSTYYADSVKGRFTISRDNAKNTVYLQMNSLKPEHTAVYYCAAEPWANTPGEAGSPFDYWGQGTQVTVSS”, the “polyreactivity (PSR sort gate)” value is on record as “low polyreactivity”.

As for “QVQLVESGGGLVQAGGSLRLSCAASGHIFFYYTMGWYRQAPGKERELVAGITIGGSTNYADSVKGRFTISRDNAKNTVYLQMNSLKPEVTAVYYCARTVYGARSYDYWGQCTQVTVSS”, the “polyreactivity (PSR sort gate)” value is on record as “low polyreactivity”.

For the sequence “QVQLVESGGGLVQAGGSLRLSCAASGFIFRDNAKGWYRQAPGKERELVAAISSGGTTKYADSVKGRFTISRDNAKNTVYLQMNSLKPEDTAVYYCAKGYAARIWRIYSRLYYWGQGTQVTVSS”, the “polyreactivity (PSR sort gate)” value is given as “high polyreactivity”.
